Our source for the Pseudovirus-ACE2 receptor inhibition, OMVs values is patent US20250213666A1.

For this experiment, the target named is Spike protein on SARS-CoV-2 pseudovirus expressing luciferase (COVID-19 Pseudovirus Neutralizing Antibody Assay, Abnova) (SARS-CoV-2) (UniProt P0DTC2). In words: cell-based or functional assay.

“Intimin-Ty1 nanobody (pIntimin-Ty1), surface displayed on E. coli Nissle 1917 or on its OMVs (VHH)” gave a Pseudovirus-ACE2 receptor inhibition, OMVs at 22 µg/mL of 30 to 32%.
